T1: MICA*001 expressed on transfected cells (human)
T1 sequence: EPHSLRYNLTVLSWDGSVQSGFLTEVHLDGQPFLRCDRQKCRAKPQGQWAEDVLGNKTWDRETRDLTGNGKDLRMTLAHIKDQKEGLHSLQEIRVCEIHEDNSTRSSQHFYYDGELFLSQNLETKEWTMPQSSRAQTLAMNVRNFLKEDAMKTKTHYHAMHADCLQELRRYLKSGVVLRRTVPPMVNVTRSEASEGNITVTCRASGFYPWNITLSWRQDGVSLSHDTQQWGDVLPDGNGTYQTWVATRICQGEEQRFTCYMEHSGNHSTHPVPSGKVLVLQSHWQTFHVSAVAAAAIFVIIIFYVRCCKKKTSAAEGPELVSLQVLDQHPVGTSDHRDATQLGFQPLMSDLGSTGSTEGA


How the values were obtained:
[1] = molecular target: MICA*008 expressed on C1R transfectant cells (human) (UniProt Q29983); assay: flow cytometry, MFI against antibody concentration on C1R-MICA*08 cells
[2] = molecular target: MICA*007 expressed on C1R transfectant cells (human) (UniProt Q29983); assay: flow cytometry, MFI against antibody concentration on C1R-MICA*07 cells
[3] = molecular target: MICA*004 expressed on C1R transfectant cells (human) (UniProt Q29983); assay: flow cytometry, MFI against antibody concentration on C1R-MICA*04 cells
[4] = molecular target: T1, MICA*001 expressed on transfected cells (human); assay: flow cytometry, MFI against antibody concentration on C1R-MICA*01 cells

MICA*004 expressed on C1R transfectant cells (human), sequence (Q29983 other isoform, or with tags, fused parts or gaps limits assumed): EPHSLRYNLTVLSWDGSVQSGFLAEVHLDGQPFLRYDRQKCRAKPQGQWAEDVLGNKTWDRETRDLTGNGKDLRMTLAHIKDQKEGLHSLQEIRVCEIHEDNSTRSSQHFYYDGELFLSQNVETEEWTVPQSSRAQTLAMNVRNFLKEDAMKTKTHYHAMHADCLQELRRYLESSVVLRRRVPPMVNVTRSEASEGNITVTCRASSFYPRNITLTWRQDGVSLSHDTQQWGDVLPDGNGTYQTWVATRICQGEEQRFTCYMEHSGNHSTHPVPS

Binder	EC50 (read off the curve) [1] [µg/mL]	EC50 (read off the curve) [2] [µg/mL]	EC50 (read off the curve) [3] [µg/mL]	EC50 (read off the curve) [4] [µg/mL]
CHG1-M-MIA-12A10 (antibody, from a related filing, V domains shown) VH: QVQLQQSGADLVRPGASVRLSCRASGYSFTNYWMNWVKQRPGQGLEWIGMIHPSDSETRLNQKFKDKATLTVDKSSNTAYMQLSSPTSEDSAIYYCARDDFFTMDYWGQGTSVTVSS VL: DILLTQSPAILSVSPGERVSFSCRASQNIVTSIHWYQQSTNGSPRLLIKYASESISGIPSRFSGSGSGTDFTLTINSVESEDVADYYCQQSNIWPLTFGAGTKLELK	0.3	1	0.3	
CHG1-M-MIA-14B4 (antibody, from a related filing, V domains shown) VH: QVQLQQPGAELVRPGASVKLSCKASGYSFTSYWMNWMKQRPGQGLEWIGMIHPSDSETRLNQKFKDKATLTVDKSSSTAYMQLNSPTSEDSAVYYCAREMGPYTLDYWGQGTSVTVSS VL: DILLTQSPAILSVSPGARVSFSCRASQNIDTSIHWYQQRTNGSPRLLIKYASESISGIPSRFSGSGSGTDFTLSINSVESEDIADYYCQQSNYWPLTFGAGTKLELK	0.3		0.2	
CHG1-M-MIA-10F3 (antibody, from a related filing, V domains shown) VH: QVQLQQSAAELARPGASVKMSCKASGYTFTSYTMHWVKQRPGQGLEWIGYINPSSGYTEYNQKFKDKTTLTVDKSSTTSYMQLSSLTSDNSAVYYCARGGDWDVDWFVYWGQGTLVTVSA VL: QIVLTQSPAIMSASPGEKVTITCSASSSISYMHWFQQKPGTSPKLWIYSTSKLASGVPARFSGSGSGTSHSLTISRMEAEDAATYYCQHRSTYPFTFGSGTKLEIK	0.3		0.2	
CHG1-M-MIA-6E4 (antibody, from a related filing, V domains shown) VH: EVQLVESGGALVKPGGSLKLSCAASGFTFSYYAMSWVRQTPEKRLEWVATISRGGNYIYYTDSVKGRFTISRDNAKNTLYLQMTSLRSEDTAMFYCASISDYDGAWLAYWGQGTTLTVSS VL: DVLMTQTPLSLPVSLGDQASISCRSSQSIIHTNGNTYLEWYLQKPGQSPKLLIYKISNRFSGVPDRFSGSGSGTDFTLKISRVEAEDLGVYYCFQGSHVPWTFGGGTKLEIKR		1		0.6
CHG1-M-MIA-19E9 (antibody, V domains shown) VH: DVQLQESGPGLVKPSQSLSLTCTVTGYSITSDYAWNWIRQFPGNKLEWMGFVSYSGTTKYNPSLKSRISITRDTSENQFFLQLNSVTSEDTATYYCARGYGFDYWGQGTTLTVSS VL: EIVLTQSPTTMAASPGEKITITCSATSSISSIYFHWYQQRPGFSPKLLIYRTSNLASGVPARFSGSGSGTSYSLTIGTMEAEDVATYYCQQGTTIPFTFGSGTKLEIK				1
CHG1-M-MIA-18E8 (antibody, from a related filing, V domains shown) VH: DVQLQESGPDLVNPSQSLSLICTVTGYSITSDYSWHWIRQFPGNKLEWMGNIHYSGRINYNPSLRSRISITRDTSKNQFFLQLISVTTEDTATYYCATRRTFGNFEDYWGQGTTLTVSS VL: QIVLSQSPATLSVSPGEKVTMTCRSSSSVNYMHWYQQKPGSSPKPWIYATSTLASGVPARFSGSGSGTSYSLTISRVEAEDAATYYCQQWSSNPLTFGAGTKLELK	0.3	0.3	0.2	

From patent publication US20150191542A1
